Measured values published in patent US20160272683A1 (Novo Nordisk, published 2016).
* marks the point of attachment. C18 diacid = O=C(O)CCCCCCCCCCCCCCCCC(=O)*

T1: human calcitonin receptor (human, UniProt P30988 25-474)
T1 construct: whole, on cells; also called hCT-R; hCTR
T1 sequence (looked up): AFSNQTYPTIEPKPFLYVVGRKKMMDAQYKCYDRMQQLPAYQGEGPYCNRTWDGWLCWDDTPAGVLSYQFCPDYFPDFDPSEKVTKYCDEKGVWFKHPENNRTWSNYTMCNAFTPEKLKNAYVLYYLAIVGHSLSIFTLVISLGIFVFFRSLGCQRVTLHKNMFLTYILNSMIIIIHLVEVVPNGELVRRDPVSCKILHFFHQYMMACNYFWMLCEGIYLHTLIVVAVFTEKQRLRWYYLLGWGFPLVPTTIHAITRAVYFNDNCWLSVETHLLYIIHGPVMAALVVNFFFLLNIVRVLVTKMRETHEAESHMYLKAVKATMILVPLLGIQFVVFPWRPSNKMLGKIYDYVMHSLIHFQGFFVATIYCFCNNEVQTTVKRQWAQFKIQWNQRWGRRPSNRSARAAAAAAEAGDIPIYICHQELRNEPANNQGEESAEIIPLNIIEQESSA

B1: [N-terminal(C18 diacid), 9I]mimylin (peptide)
peptide: {C18 diacid}-EASELSTAILGRLSAELHELATLPRTETGPESP-NH2
SMILES: CC[C@H](C)[C@H](NC(=O)[C@H](C)NC(=O)[C@@H](NC(=O)[C@H](CO)NC(=O)[C@H](CC(C)C)NC(=O)[C@H](CCC(=O)O)NC(=O)[C@H](CO)NC(=O)[C@H](C)NC(=O)[C@H](CCC(=O)O)NC(=O)CCCCCCCCCCCCCCCCC(=O)O)[C@@H](C)O)C(=O)N[C@@H](CC(C)C)C(=O)NCC(=O)N[C@@H](CCCNC(=N)N)C(=O)N[C@@H](CC(C)C)C(=O)N[C@@H](CO)C(=O)N[C@@H](C)C(=O)N[C@@H](CCC(=O)O)C(=O)N[C@@H](CC(C)C)C(=O)N[C@@H](Cc1c[nH]cn1)C(=O)N[C@@H](CCC(=O)O)C(=O)N[C@@H](CC(C)C)C(=O)N[C@@H](C)C(=O)N[C@H](C(=O)N[C@@H](CC(C)C)C(=O)N1CCC[C@H]1C(=O)N[C@@H](CCCNC(=N)N)C(=O)N[C@H](C(=O)N[C@@H](CCC(=O)O)C(=O)N[C@H](C(=O)NCC(=O)N1CCC[C@H]1C(=O)N[C@@H](CCC(=O)O)C(=O)N[C@@H](CO)C(=O)N1CCC[C@H]1C(N)=O)[C@@H](C)O)[C@@H](C)O)[C@@H](C)O
notes: also called Ex. #10
B2: [N-terminal(C18 diacid), 9L, 10A]mimylin (peptide)
peptide: {C18 diacid}-EASELSTALAGRLSAELHELATLPRTETGPESP-NH2
SMILES: CC(C)C[C@H](NC(=O)[C@H](C)NC(=O)[C@@H](NC(=O)[C@H](CO)NC(=O)[C@H](CC(C)C)NC(=O)[C@H](CCC(=O)O)NC(=O)[C@H](CO)NC(=O)[C@H](C)NC(=O)[C@H](CCC(=O)O)NC(=O)CCCCCCCCCCCCCCCCC(=O)O)[C@@H](C)O)C(=O)N[C@@H](C)C(=O)NCC(=O)N[C@@H](CCCNC(=N)N)C(=O)N[C@@H](CC(C)C)C(=O)N[C@@H](CO)C(=O)N[C@@H](C)C(=O)N[C@@H](CCC(=O)O)C(=O)N[C@@H](CC(C)C)C(=O)N[C@@H](Cc1c[nH]cn1)C(=O)N[C@@H](CCC(=O)O)C(=O)N[C@@H](CC(C)C)C(=O)N[C@@H](C)C(=O)N[C@H](C(=O)N[C@@H](CC(C)C)C(=O)N1CCC[C@H]1C(=O)N[C@@H](CCCNC(=N)N)C(=O)N[C@H](C(=O)N[C@@H](CCC(=O)O)C(=O)N[C@H](C(=O)NCC(=O)N1CCC[C@H]1C(=O)N[C@@H](CCC(=O)O)C(=O)N[C@@H](CO)C(=O)N1CCC[C@H]1C(N)=O)[C@@H](C)O)[C@@H](C)O)[C@@H](C)O
notes: also called Ex. #27
B3: [N-terminal(C18 diacid), 9V, 10I]mimylin (peptide)
peptide: {C18 diacid}-EASELSTAVIGRLSAELHELATLPRTETGPESP-NH2
SMILES: CC[C@H](C)[C@H](NC(=O)[C@@H](NC(=O)[C@H](C)NC(=O)[C@@H](NC(=O)[C@H](CO)NC(=O)[C@H](CC(C)C)NC(=O)[C@H](CCC(=O)O)NC(=O)[C@H](CO)NC(=O)[C@H](C)NC(=O)[C@H](CCC(=O)O)NC(=O)CCCCCCCCCCCCCCCCC(=O)O)[C@@H](C)O)C(C)C)C(=O)NCC(=O)N[C@@H](CCCNC(=N)N)C(=O)N[C@@H](CC(C)C)C(=O)N[C@@H](CO)C(=O)N[C@@H](C)C(=O)N[C@@H](CCC(=O)O)C(=O)N[C@@H](CC(C)C)C(=O)N[C@@H](Cc1c[nH]cn1)C(=O)N[C@@H](CCC(=O)O)C(=O)N[C@@H](CC(C)C)C(=O)N[C@@H](C)C(=O)N[C@H](C(=O)N[C@@H](CC(C)C)C(=O)N1CCC[C@H]1C(=O)N[C@@H](CCCNC(=N)N)C(=O)N[C@H](C(=O)N[C@@H](CCC(=O)O)C(=O)N[C@H](C(=O)NCC(=O)N1CCC[C@H]1C(=O)N[C@@H](CCC(=O)O)C(=O)N[C@@H](CO)C(=O)N1CCC[C@H]1C(N)=O)[C@@H](C)O)[C@@H](C)O)[C@@H](C)O
notes: also called Ex. #26

Target: T1, human calcitonin receptor
Assay: whole-cell competition vs 125I-human calcitonin (Assay VIIa)
Experimental: The binding assay was performed using a BHK tk'ts 13 cell line was stably transfected with the human calcitonin receptor, and a CRE-responsive luciferase reporter gene.
The day before the assay the cells were Seeded into Poly-D-Lysin coated 384W Opaque White, BD BioCoat plates (10000 cells/well) and Incubated overnight at 37° C., 5% CO2, 95% humidity. […] The morning after, the plates were washed three times in HBSS (4° C.), and lyzed in Lysis buffer (0.1 M NaOH), 1% SDS. Scintillation cocktail (MicroScint40®) was added and the plates were shaken at 500 rpm for a short period. The plate was incubated at room temperature in the dark for 1 hour and Read on a TopCounter™ (Packard). The IC₅₀ was calculated using (one site binding competition analysis) GraphPad Prism5 as a measure of receptor affinity.

First: B1
Second: B2
The IC50 of the first is 2.4-fold higher: 0.523 nM for the first, 0.219 nM for the second. The second is the more potent here.

Work on B3 yielded an IC50 of 0.57 nM.
